Experimental data taken from the supplement of paper PMC10065799, “High-throughput profiling of sequence recognition by tyrosine kinases and SH2 domains using bacterial peptide display” (eLife, 2023).

molecular target: FGFR3 (UniProt P22607); assay: phosphorylation enrichment, bacterial display (enrichment ratio); higher = better substrate or ligand; peptides without Tyr show the background
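Also: 11-residue human phosphosite peptides and single-mutation variants displayed on the E. coli surface, counted by deep sequencing, each peptide's frequency after selection divided by its frequency in the unselected input library; frequency after pTyr selection over input frequency; kinase dosed for 20-30% of maximal phosphorylation in three min.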

Chain of FGFR3 (P22607 whole entry, looked up): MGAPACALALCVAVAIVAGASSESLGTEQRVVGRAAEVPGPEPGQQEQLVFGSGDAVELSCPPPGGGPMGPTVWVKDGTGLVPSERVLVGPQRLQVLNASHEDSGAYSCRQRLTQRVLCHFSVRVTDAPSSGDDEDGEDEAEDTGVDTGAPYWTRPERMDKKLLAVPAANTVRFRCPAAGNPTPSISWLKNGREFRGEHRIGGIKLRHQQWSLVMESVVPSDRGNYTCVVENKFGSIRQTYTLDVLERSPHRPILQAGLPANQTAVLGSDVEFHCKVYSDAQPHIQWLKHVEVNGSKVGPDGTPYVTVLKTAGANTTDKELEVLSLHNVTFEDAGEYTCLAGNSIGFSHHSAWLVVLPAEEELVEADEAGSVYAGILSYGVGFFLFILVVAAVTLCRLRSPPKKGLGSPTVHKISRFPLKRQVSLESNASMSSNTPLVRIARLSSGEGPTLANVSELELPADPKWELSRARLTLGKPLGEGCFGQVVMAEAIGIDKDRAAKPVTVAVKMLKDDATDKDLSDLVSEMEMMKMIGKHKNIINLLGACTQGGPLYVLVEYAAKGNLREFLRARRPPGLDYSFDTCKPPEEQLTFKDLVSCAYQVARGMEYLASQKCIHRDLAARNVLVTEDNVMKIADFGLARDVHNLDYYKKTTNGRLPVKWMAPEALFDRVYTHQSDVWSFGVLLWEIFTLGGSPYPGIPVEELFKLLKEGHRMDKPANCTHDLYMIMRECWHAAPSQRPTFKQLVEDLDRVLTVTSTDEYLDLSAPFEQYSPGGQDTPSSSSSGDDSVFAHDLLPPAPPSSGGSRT

| Sequence | phosphorylation enrichment |
| --- | --- |
| YTTIHYNYMCN [TP53_Y234_C229Y] | 3.35 |
| YTDPYYDYEIE [ZC3H18_Y372_A368T] | 7.56 |
| HAKKNYGNSSV [HDX_Y197] | 0.281 |
| KTTILHKLKLG [ARF1_Y35_Y35H] | 0.518 |
| KFVVVYFRETD [IL17RB_Y447_I451T_YF] | 0.734 |
| VHYLVYHHHHH [CACNA1H_Y519_H516Y] | 1.07 |
| RSSPVYVGRVV [TGM2_Y219] | 0.82 |
| ADARMYGVHPW [PLP1_Y207_L210H] | 0.481 |
| HSQEDYFECFQ [ZIM2_Y411] | 8.51 |
| WCKPLYFSCAV [MMS22L_Y28_P27L] | 1.1 |
| EWQQTYTFDSG [JUP_Y20_YF] | 1.02 |
| SQQTYCRVSNM [ABCD1_Y181_Y181C] | 0.683 |
| CTHDLYMIMRE [FGFR3_Y724] | 0.837 |
| SVTCTYSPALY [TP53_Y126_N131Y] | 0.929 |
| STKELYEKFMI | 0.492 |
| GRPMDYHVSIT [OTOF_Y254_Q255H] | 0.577 |
| MAPQMYEFHLP [NCAPD2_Y6] | 0.719 |

| Sequence | phosphorylation enrichment |
| --- | --- |
| PMFHSYVSLPF [PLXNA2_Y293_K289M] | 2.26 |
| TNYCLYLRSLE [MTM1_Y71_R69C] | 1 |
| SLDLSYFHTSS [EMD_Y181_P183H_YF] | 0.595 |
| IGEGTYGVLYK [CDK2_Y15_V18L] | 0.632 |
| ARGMEYLASQK [FGFR2_Y616] | 0.433 |
| MEIHAYRKLSE [LMNA_Y376_L380S] | 0.495 |
| FGHTFYNQAIM [MCCC2_Y196_R193H] | 0.556 |
| LLIMEYAKFGS [RET_Y806_V804M_YF] | 0.697 |
| ECKEAYHEGEC [PRKN_Y372] | 0.652 |
| TSQSQYSSFRE [CCDC170_Y323_F324S] | 0.531 |
| TLPAFYMGNFS [GLB1_Y552] | 0.728 |
| TLKDVCDDGKF [RPS6KA3_Y483_Y483C_YF] | 0.601 |
| RRNVYYYSYLL [PTEN_Y177_Y174N] | 4.21 |
| KDYETYQSFQN [CTNND2_Y1157_P1159S] | 0.691 |
| AKLVQYYMEHH [PTPN11_Y80_E76K] | 0.549 |
| STAPSYGNPSS [CD19_Y378_G373S] | 0.358 |

molecular target: Fyn (UniProt P06241); assay: as above
Sequence (P06241 whole entry, looked up): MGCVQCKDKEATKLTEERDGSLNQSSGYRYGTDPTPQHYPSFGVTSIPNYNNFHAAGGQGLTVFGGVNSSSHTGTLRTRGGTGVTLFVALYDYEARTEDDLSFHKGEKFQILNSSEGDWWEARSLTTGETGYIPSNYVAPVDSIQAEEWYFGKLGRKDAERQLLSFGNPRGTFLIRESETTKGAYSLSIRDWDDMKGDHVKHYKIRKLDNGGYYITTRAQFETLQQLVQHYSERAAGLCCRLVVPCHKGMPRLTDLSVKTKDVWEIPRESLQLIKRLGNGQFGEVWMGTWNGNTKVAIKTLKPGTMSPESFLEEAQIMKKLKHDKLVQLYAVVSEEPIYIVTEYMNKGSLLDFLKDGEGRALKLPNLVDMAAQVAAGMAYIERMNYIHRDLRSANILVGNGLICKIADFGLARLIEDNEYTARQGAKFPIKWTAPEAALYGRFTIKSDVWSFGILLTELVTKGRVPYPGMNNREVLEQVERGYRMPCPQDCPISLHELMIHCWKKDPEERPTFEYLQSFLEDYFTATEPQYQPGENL

| Sequence | phosphorylation enrichment |
| --- | --- |
| YTTIHYNYMCN [TP53_Y234_C229Y] | 0.976 |
| YTDPYYDYEIE [ZC3H18_Y372_A368T] | 1.96 |
| HAKKNYGNSSV [HDX_Y197] | 0.262 |
| KTTILHKLKLG [ARF1_Y35_Y35H] | 0.333 |
| KFVVVYFRETD [IL17RB_Y447_I451T_YF] | 0.463 |
| VHYLVYHHHHH [CACNA1H_Y519_H516Y] | 0.537 |
| RSSPVYVGRVV [TGM2_Y219] | 1.42 |
| ADARMYGVHPW [PLP1_Y207_L210H] | 4.81 |
| HSQEDYFECFQ [ZIM2_Y411] | 0.669 |
| WCKPLYFSCAV [MMS22L_Y28_P27L] | 0.533 |
| EWQQTYTFDSG [JUP_Y20_YF] | 3.03 |
| SQQTYCRVSNM [ABCD1_Y181_Y181C] | 0.751 |
| CTHDLYMIMRE [FGFR3_Y724] | 0.564 |
| SVTCTYSPALY [TP53_Y126_N131Y] | 1.27 |
| STKELYEKFMI | 0.724 |
| GRPMDYHVSIT [OTOF_Y254_Q255H] | 0.456 |
| MAPQMYEFHLP [NCAPD2_Y6] | 0.506 |

| Sequence | phosphorylation enrichment |
| --- | --- |
| PMFHSYVSLPF [PLXNA2_Y293_K289M] | 1.08 |
| TNYCLYLRSLE [MTM1_Y71_R69C] | 0.545 |
| SLDLSYFHTSS [EMD_Y181_P183H_YF] | 0.464 |
| IGEGTYGVLYK [CDK2_Y15_V18L] | 8.4 |
| ARGMEYLASQK [FGFR2_Y616] | 0.534 |
| MEIHAYRKLSE [LMNA_Y376_L380S] | 0.356 |
| FGHTFYNQAIM [MCCC2_Y196_R193H] | 0.465 |
| LLIMEYAKFGS [RET_Y806_V804M_YF] | 1.09 |
| ECKEAYHEGEC [PRKN_Y372] | 0.48 |
| TSQSQYSSFRE [CCDC170_Y323_F324S] | 1.37 |
| TLPAFYMGNFS [GLB1_Y552] | 0.627 |
| TLKDVCDDGKF [RPS6KA3_Y483_Y483C_YF] | 0.446 |
| RRNVYYYSYLL [PTEN_Y177_Y174N] | 1.14 |
| KDYETYQSFQN [CTNND2_Y1157_P1159S] | 6.69 |
| AKLVQYYMEHH [PTPN11_Y80_E76K] | 0.469 |
| STAPSYGNPSS [CD19_Y378_G373S] | 0.383 |

molecular target: EPHB2 (UniProt P29323); assay: as above
Sequence (P29323 whole entry, looked up): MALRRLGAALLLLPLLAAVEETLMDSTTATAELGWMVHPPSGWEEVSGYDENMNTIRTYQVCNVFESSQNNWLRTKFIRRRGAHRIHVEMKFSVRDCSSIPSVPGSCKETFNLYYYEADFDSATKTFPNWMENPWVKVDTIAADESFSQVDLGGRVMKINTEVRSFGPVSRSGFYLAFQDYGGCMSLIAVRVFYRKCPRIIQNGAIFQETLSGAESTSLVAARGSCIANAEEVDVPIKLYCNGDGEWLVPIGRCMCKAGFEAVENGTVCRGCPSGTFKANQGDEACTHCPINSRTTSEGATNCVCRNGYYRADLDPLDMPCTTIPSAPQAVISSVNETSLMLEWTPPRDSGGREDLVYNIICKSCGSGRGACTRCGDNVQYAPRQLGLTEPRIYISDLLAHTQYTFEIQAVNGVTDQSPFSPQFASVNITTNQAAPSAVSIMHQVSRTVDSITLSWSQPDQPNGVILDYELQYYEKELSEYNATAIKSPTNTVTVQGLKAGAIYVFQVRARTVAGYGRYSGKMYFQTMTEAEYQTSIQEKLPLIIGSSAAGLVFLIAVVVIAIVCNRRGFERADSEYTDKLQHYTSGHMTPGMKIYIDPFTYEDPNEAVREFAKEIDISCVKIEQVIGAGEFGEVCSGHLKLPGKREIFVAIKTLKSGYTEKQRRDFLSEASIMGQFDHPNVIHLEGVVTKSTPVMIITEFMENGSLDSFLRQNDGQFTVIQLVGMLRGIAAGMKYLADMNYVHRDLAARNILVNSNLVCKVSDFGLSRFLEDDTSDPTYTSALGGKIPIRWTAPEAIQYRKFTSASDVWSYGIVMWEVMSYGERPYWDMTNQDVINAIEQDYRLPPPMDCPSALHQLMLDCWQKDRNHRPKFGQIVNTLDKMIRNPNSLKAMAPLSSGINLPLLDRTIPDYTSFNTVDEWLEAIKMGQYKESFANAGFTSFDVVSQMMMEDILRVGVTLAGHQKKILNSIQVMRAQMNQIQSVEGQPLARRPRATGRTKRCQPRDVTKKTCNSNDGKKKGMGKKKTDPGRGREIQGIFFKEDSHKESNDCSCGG

| Sequence | phosphorylation enrichment |
| --- | --- |
| YTTIHYNYMCN [TP53_Y234_C229Y] | 0.897 |
| YTDPYYDYEIE [ZC3H18_Y372_A368T] | 1.06 |
| HAKKNYGNSSV [HDX_Y197] | 0.162 |
| KTTILHKLKLG [ARF1_Y35_Y35H] | 0.509 |
| KFVVVYFRETD [IL17RB_Y447_I451T_YF] | 0.597 |
| VHYLVYHHHHH [CACNA1H_Y519_H516Y] | 0.666 |
| RSSPVYVGRVV [TGM2_Y219] | 0.796 |
| ADARMYGVHPW [PLP1_Y207_L210H] | 0.493 |
| HSQEDYFECFQ [ZIM2_Y411] | 1.2 |
| WCKPLYFSCAV [MMS22L_Y28_P27L] | 0.598 |
| EWQQTYTFDSG [JUP_Y20_YF] | 0.485 |
| SQQTYCRVSNM [ABCD1_Y181_Y181C] | 1.98 |
| CTHDLYMIMRE [FGFR3_Y724] | 1.03 |
| SVTCTYSPALY [TP53_Y126_N131Y] | 0.786 |
| STKELYEKFMI | 0.414 |
| GRPMDYHVSIT [OTOF_Y254_Q255H] | 0.453 |
| MAPQMYEFHLP [NCAPD2_Y6] | 3.16 |

| Sequence | phosphorylation enrichment |
| --- | --- |
| PMFHSYVSLPF [PLXNA2_Y293_K289M] | 1.86 |
| TNYCLYLRSLE [MTM1_Y71_R69C] | 1.52 |
| SLDLSYFHTSS [EMD_Y181_P183H_YF] | 0.6 |
| IGEGTYGVLYK [CDK2_Y15_V18L] | 2.75 |
| ARGMEYLASQK [FGFR2_Y616] | 0.461 |
| MEIHAYRKLSE [LMNA_Y376_L380S] | 0.459 |
| FGHTFYNQAIM [MCCC2_Y196_R193H] | 0.447 |
| LLIMEYAKFGS [RET_Y806_V804M_YF] | 0.968 |
| ECKEAYHEGEC [PRKN_Y372] | 0.638 |
| TSQSQYSSFRE [CCDC170_Y323_F324S] | 0.77 |
| TLPAFYMGNFS [GLB1_Y552] | 0.619 |
| TLKDVCDDGKF [RPS6KA3_Y483_Y483C_YF] | 0.545 |
| RRNVYYYSYLL [PTEN_Y177_Y174N] | 0.707 |
| KDYETYQSFQN [CTNND2_Y1157_P1159S] | 8.93 |
| AKLVQYYMEHH [PTPN11_Y80_E76K] | 1.21 |
| STAPSYGNPSS [CD19_Y378_G373S] | 0.357 |

molecular target: FGFR1 (UniProt P11362); assay: as above
Sequence (P11362 whole entry, looked up): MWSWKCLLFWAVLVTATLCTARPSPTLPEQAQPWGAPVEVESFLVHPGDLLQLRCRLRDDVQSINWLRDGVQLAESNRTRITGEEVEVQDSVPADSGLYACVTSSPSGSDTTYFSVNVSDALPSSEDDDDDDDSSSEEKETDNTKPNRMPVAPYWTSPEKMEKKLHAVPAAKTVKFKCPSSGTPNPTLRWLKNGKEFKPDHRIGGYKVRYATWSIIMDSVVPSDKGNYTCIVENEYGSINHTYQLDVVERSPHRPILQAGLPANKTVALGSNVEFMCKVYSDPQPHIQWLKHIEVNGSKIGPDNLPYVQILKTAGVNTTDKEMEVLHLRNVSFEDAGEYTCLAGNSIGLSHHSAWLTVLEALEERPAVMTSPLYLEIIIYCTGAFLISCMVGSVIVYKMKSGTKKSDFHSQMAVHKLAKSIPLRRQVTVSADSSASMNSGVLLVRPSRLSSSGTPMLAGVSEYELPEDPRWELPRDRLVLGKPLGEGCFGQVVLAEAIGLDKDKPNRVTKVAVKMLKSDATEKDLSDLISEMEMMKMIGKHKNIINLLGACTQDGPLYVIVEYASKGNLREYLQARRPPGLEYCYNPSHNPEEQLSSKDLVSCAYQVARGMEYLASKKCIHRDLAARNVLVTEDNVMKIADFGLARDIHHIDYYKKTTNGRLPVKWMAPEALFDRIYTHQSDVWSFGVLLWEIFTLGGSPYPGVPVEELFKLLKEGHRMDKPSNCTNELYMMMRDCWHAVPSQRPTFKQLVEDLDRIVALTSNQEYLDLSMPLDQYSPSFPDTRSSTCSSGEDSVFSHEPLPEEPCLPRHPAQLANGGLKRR

| Sequence | phosphorylation enrichment |
| --- | --- |
| YTTIHYNYMCN [TP53_Y234_C229Y] | 4.5 |
| YTDPYYDYEIE [ZC3H18_Y372_A368T] | 9.65 |
| HAKKNYGNSSV [HDX_Y197] | 0.406 |
| KTTILHKLKLG [ARF1_Y35_Y35H] | 0.439 |
| KFVVVYFRETD [IL17RB_Y447_I451T_YF] | 0.512 |
| VHYLVYHHHHH [CACNA1H_Y519_H516Y] | 0.7 |
| RSSPVYVGRVV [TGM2_Y219] | 0.77 |
| ADARMYGVHPW [PLP1_Y207_L210H] | 0.38 |
| HSQEDYFECFQ [ZIM2_Y411] | 10.2 |
| WCKPLYFSCAV [MMS22L_Y28_P27L] | 1.14 |
| EWQQTYTFDSG [JUP_Y20_YF] | 0.965 |
| SQQTYCRVSNM [ABCD1_Y181_Y181C] | 0.587 |
| CTHDLYMIMRE [FGFR3_Y724] | 0.634 |
| SVTCTYSPALY [TP53_Y126_N131Y] | 0.523 |
| STKELYEKFMI | 0.409 |
| GRPMDYHVSIT [OTOF_Y254_Q255H] | 0.453 |
| MAPQMYEFHLP [NCAPD2_Y6] | 0.443 |

| Sequence | phosphorylation enrichment |
| --- | --- |
| PMFHSYVSLPF [PLXNA2_Y293_K289M] | 3.85 |
| TNYCLYLRSLE [MTM1_Y71_R69C] | 0.814 |
| SLDLSYFHTSS [EMD_Y181_P183H_YF] | 0.549 |
| IGEGTYGVLYK [CDK2_Y15_V18L] | 0.416 |
| ARGMEYLASQK [FGFR2_Y616] | 0.443 |
| MEIHAYRKLSE [LMNA_Y376_L380S] | 0.371 |
| FGHTFYNQAIM [MCCC2_Y196_R193H] | 0.555 |
| LLIMEYAKFGS [RET_Y806_V804M_YF] | 0.772 |
| ECKEAYHEGEC [PRKN_Y372] | 0.626 |
| TSQSQYSSFRE [CCDC170_Y323_F324S] | 0.63 |
| TLPAFYMGNFS [GLB1_Y552] | 0.543 |
| TLKDVCDDGKF [RPS6KA3_Y483_Y483C_YF] | 0.583 |
| RRNVYYYSYLL [PTEN_Y177_Y174N] | 6.81 |
| KDYETYQSFQN [CTNND2_Y1157_P1159S] | 0.551 |
| AKLVQYYMEHH [PTPN11_Y80_E76K] | 0.633 |
| STAPSYGNPSS [CD19_Y378_G373S] | 0.361 |
